assay: soluble on expression in E. coli; label from the status in PepcDB or PDB records

Row | Sequence | soluble on expression in E. coli
1 | MAHHHHHHMADYGWTRGKLPKFRARSPFHRQQIARRMVTEMIRKDYCIVGGARAPALRILADHVVELAKAGDTDSRQQLAYFLHDPLMVDKAFDEYPRRFKDMNAKYAMMTRLKSRRRTDAVAMYFVEYKNRDMSDNHKGEDYSAGPERFFLPPRIVETEKGIQRPPHMQMAFDRWASKFKTEEFHHWWRLRHAKLRYWGVRNVPHPSDVDPLWTEKEEEEWHNEMLANTGEYEDLDLDDESYTAAGEGGEPSPAGDGPQPQRVG | not soluble
2 | MSTPRIEHYTTDVHAHWEGIHPQDWAEVDLIGYENAMDKMYRTLCENPDAALVQVGHRSKLLNDHGSDYRFNGKFTSEQTKPERSHHDYNHFGKLMKWEGDRWYKYDFEVEVTDHTRSE | not soluble
3 | AINQANRSVCITTPYFVPSADLLATLKMTAQRGIKVDIIIPKKNDSLMVQWASRAFYGELLEAGVQIHEFDGGLLHTKSVVIDQQFCLVGTVNLDMRSLWLNFELTLAVDDLEFTQQMHWLQQQYIDQSHSVVYAEWEQRPWYNRFLERVFYLFNPLL | not soluble
4 | AHHHHHHGSGMKYLIKLKYIKPAQLAVNREQKLAEFYPIFEDGTLGRVEAKARVFLPEYSDFAKGLGFEVKKRRMITEDDYAYLRAMVYGVVMGVLRNPGDWRRLEERVLEMEPIELRYWASKFRNAYWKYKNMRKLMFLARRFMEVEMI | not soluble
5 | MGSDKIHHHHHHMFDLNDLFYFVQVVECRGFAPASRKLGIPKSKLSRRIAGLEERLGVSLIHRSTRKFAVTESGRDYYGHCVAMLVEADAAEEAIQRSKSEPQGKVVISCPPAMAAMGINEAIAGFMAAHPKVQVHIESTNRRVDPLIENIDIALRVRFPPLEDDGLVVKTLGHSAQRLVAHPDLAALLPANASFEALARLPSLDVTSSTPEHRWLLENGPGHYVEVRHAPRLVSSDLDAILQAALQGVGVAQLPEILVREALQQGRMVELFDAHRPKCGILHAVFVSRRGLLPAVRGLLDAFESSFTELTHNPESLYCSLHRTNSRIQGD | not soluble
6 | MINTMTLDNGVRIITEKMSTVRSVSIGIWVGTGSRYESAEENGISHFLEHMFFKGTNTRSAQEIAEFFDSIGGQVNAFTSKEYTCYYAKVLDDHAGQAIDTLSDMFFHSTFQKEELEKERKVVFEEIKMVDDTPDDIVHDLLSSATYGKHSLGYPILGTVETLNSFNEGMLRHYMDRFYTGDYVVISVAGNVHDELIDKIKETFSQVKPTTYNYQGEKPMFLPNRIVRKKETEQAHLCLGYPGLPIGDKDVYALVLLNNVLGGSMSSRLFQDIREKRGLCYSVFSYHSSFRDSGMLTIYAGTGHDQLDDLVYSIQETTSALAEKGLTEKELENGKEQLKGSLMLSLESTNSRMSRNGKNELLLKKHRSLDEMIEQINAVQKQDVSRLAKILLSASPSISLINANGELPKALIHLEHHHHHH | soluble
7 | MQKIGEWLKEHDVKVTTIYFGGGTPTSITAEEMDLLYEEMVRSFPDVKNIREITVEAGRPDTITEEKLAVLNKYDIDRISINPQSYENETLKAIGRHHTVEETIEKYHLSRQHGMNNINMDLIIGLPGEGVKEFRHSLSETEKLMPESLTVHTLSFKRASEMTRNKHKYKVAGREEVSQMMEDAVAWTKEHGYVPYYLYRQKNILGNLENVGYSLPGQESIYNIMIMEEVQTIIGIGCGAASKFIDRDTGKITHFANPKDPKSYNERFEHYTDEKIKYLEQIFEKTTKQHLEHHHHHH | not soluble
8 | MGHHHHHHSHSTKDRKIIPLKMCFAARNLSMPDLENRLIELHSPDSRNTLILRCKDTATAHSWFVAIHTNIMALLPQVLAELNAMLGATSTAGGSKEVKHIAWLAEQAKLDGGRQQWRPVLMAVTEKDLLLYDCMPWTRDAWASPCHSYPLVATRLVHSGSGCRSPSLGSDLTFATRTGSRQGIEMHLFRVETHRDLSSWTRILVQGCHAAAEL | not soluble
9 | SNAVRGFLIVGNKAFTQPFSLNDLPGAGRMDVLCRCTSQALFISHGIRRDVEVYLLLLGPPSPPKSILIKGDEVRRMSPDERNVAGHIKKALAVECGKSWKKVHSGVYVSRKGLEELIEELSEKYSIIYLKEDGVDISNAQLPPNPLFVIGDHEGLTEEQEKVVERYAALKLSLSPLSLLAEQCVVIAHHHLDRLQF | soluble
10 | MGSDKIHHHHHHMSNNLLVLQSDFGLVDGAVSAMIGVALQEAPTLGIHNLTHEITPYNIFEASYRLFQTVEYWPQGTTFVSVVDPGVGSDRKSVVALTSRNQYIVTPDNGTLSYIKKHVGIKAVREISEIENRRRNTELSYTFHGRDVYAFTGAKLASDHISFEEVGPELAIESIVELPVVETVIEDNLVRGAVDILDVRFGSLWTSITREEFYTLKPEFNDRFEVTIYNNDMLVYQNQVTYGKSFAAVRIGQPIIYINSLYRVGVAINQGSFANAYNVGVGPQWRIEIKKLN | not soluble
11 | MGSDKIHHHHHHMSTEKIFIIGLPRTATTSVCLAMLEQGYKTAHNAYTQDSFSQAQVLADTPIFCDYQTLDKDFPNSRFIHLTRAPELWLPSIKQLLQRMLVNLQRTDGGFNPHIKRCYSETFSPLTEENINSDEFLLDCYTRHQQGITEHFQDRPQDLLTIDVGDEGSYLAMLSFLNIEKEKAREGGFKQINIGGKVRAWQHLNNPLKVESTNKGRIDKVLY | not soluble
12 | MGSDKIHHHHHHMVTRITINRGKRCVDEADRCHNRWHPDIEPAAEVDPGDIVVIETRDALDGQITANPGVDDVASADLNVVHPLTGPVYVRGAKPGDLLVVEVLDIKAEPFGFTVAIPGFGFLRDLFDKPYKIRWRIEGGYAFSEDLPNVRIPGDPFLGVMGVAPSKELLKEIKEREDRLLKRGGFVLPPTPEGAVPPREPVASEGLRTIPPRENGGNLDVRHFSPGSKIYFPVFVEGALFSVGDAHYAQGDGEVCGTAIEMGATATLRFGVISEGAKKYGIRFPIFKPSESSVRRFTHSKHVAVTGVGVIDSLNESENATLSAKHALLNLINLLEKAGYTREQAYLLASVAADLRLSQLVDVPNFTVTAFLPLDIFIEPPEVLKKLAE | not soluble
13 | MGSDKIHHHHHHMKHESTKIPLVIFMHIPKTGGITLRNILDQQYRSEHILRLPQKNKLDNLLQKKGANIKKLQCVYGHHRFGVHEYFQQPFTYITMLRHPVERIISTYYFILQNERNRMHQKVKPLTFEQFVQSTDPDLQVPLTNHQTRYLSGERKPNLNKALQHMDTHFSVVGITELYNESLFIMKKKLGWDHISYQKKNVTYYRYRQTDIGLDTIEIIKRKNPLDLHLYETAKEKLQEHIKRLDSGARKELQQFLQDQNGFGPHG | not soluble
14 | MSETPAQCSIKQERISYTPPESPVPSYASSTPLHVPVPRALRMEEDSIRLPAHLRLQPIYWSRDDVAQWLKWAENEFSLRPIDSNTFEMNGKALLLLTKEDFRYRSPHSGDVLYELLQHILKQRKPRILFSPFFHPGNSIHTQPEVILHQNHEEDNCVQRTPRPSVDNVHHNPPTIELLHRSRSPITTNHRPSPDPEQRPLRSPLDNMIRRLSPAERAQGPRPHQENNHQESYPLSVSPMENNHCPASSESHPKPSSPRQESTRVIQLMPSPIMHPLILNPRHSVDFKQSRLSEDGLHREGKPINLSHREDLAYMNHIMVSVSPPEEHAMPIGRIADCRLLWDYVYQLLSDSRYENFIRWEDKESKIFRIVDPNGLARLWGNHKNRTNMTYEKMSRALRHYYKLNIIRKEPGQRLLFRFMKTPDEIMSGRTDRLEHLESQELDEQIYQEDEC | soluble
15 | ESYAIFSLNAQFDALTINKARKLYRGKTRLLQGQRIELSDWPETSVERTEFYRYLLNKNLAQMNAHWASLSFSGKARPPKVIDQPSIEILLAWMREQPNRIGYAPVDSLPSDAHVLYVV | not soluble
16 | MRKFLSKTHHHTNPLWRVYRLVKFSKVFKNVIIIEFSKFIPSMVLKRHIYKQLLNINIGNQSSIAYKVMLDIFYPELITIGSNSVIGYNVTILTHEALVDEFRYGPVTIGSNTLIGANATILPGITIGDNVKVAAGTVVSKDIPDNGFAYGNPMYIKMIRR | not soluble
17 | MGSDKIHHHHHHMSEWDKNRWKEGRSSEYTWKGVVFMAKIMKQFLKGNDLSLSIQEIFKNELIPCTVRHLPKGEILWHDKEPHPYSYFIINGIIKLHVVTKEGREKALFYYTNGSLLGFQNLAKEKRTITTATAILPTSLYACEFSLLYTFVMNNPQYFAAFTSYIFHHMAVEAEEIVNISLYNTAERLAALLVLLAEEFPQNEQGYIEIPFNNEELATMVGACRNSVFNALSVFQKQKLIHKGRGRLVIADLPRLKEYV | not soluble

— the DeepSol protein solubility set
